Data published in the supplement of paper PMC10567573.

B1: FADS1 (parent)
chain: LNFQIEHHLFPTMPRHNYHKVAPL

Variants of: B1
Experiment: protein stability index of a GFP-peptide fusion (GPS, HEK-293T) (PSI 1-6); higher = more stable
Conditions: c terminus: a fixed tail appended
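Note: lentivirally expressed fusions sorted by FACS into six bins by GFP to DsRed ratio, PSI derived from sequencing read proportions per bin multiplied by bin number.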

Point of comparison: LNAQIEHHLFPTMPRHNYHKVAPL, protein stability index 2.58. Against it:
- LNFQILHHLFPTMPRHNYHKVAPL — lower, 2.27
- LNFQIPHHLFPTMPRHNYHKVAPL — lower, 2.11
- LNFQIDHHLFPTMPRHNYHKVAPL — lower, 2.54
- RNFQIEHHLFPTMPRHNYHKVAPL — lower, 2.48
- ANFQIEHHLFPTMPRHNYHKVAPL — lower, 1.91
- DNFQIEHHLFPTMPRHNYHKVAPL — lower, 1.31
- TNFQIEHHLFPTMPRHNYHKVAPL — lower, 2.03
- KNFQIEHHLFPTMPRHNYHKVAPL — lower, 2.03
- FNFQIEHHLFPTMPRHNYHKVAPL — higher, 3.4
- NNFQIEHHLFPTMPRHNYHKVAPL — lower, 1.95
- QNFQIEHHLFPTMPRHNYHKVAPL — lower, 2.31
- VNFQIEHHLFPTMPRHNYHKVAPL — lower, 2.18
- INFQIEHHLFPTMPRHNYHKVAPL — lower, 2.2
- CNFQIEHHLFPTMPRHNYHKVAPL — lower, 2.11
- LNFQIEHHLFPTMPRHNFHKVAPL — higher, 2.72
- LNFQIEHHLFPTMPRHNGHKVAPL — lower, 1.81
- LNFQIEHHLFPTMPRHNVHKVAPL — lower, 1.51
- LNFQIEHHLFPTMPRHNPHKVAPL — higher, 2.99
- LNFQIEHHLFPTMPRHNMHKVAPL — lower, 2.18
- LNFQIEHHLFPTMPRHNLHKVAPL — lower, 1.69
- LNFQIEHHLFPTMPRHNAHKVAPL — higher, 2.95
- LNFQIEHHLFPTMPRHNTHKVAPL — lower, 2.27
- LNFQIEHHLFPTMPRHNQHKVAPL — lower, 2.17
- LNFQIEHHLFPTMPRHNDHKVAPL — lower, 1.44
- LNFQIEHHLFPTMPRHNWHKVAPL — higher, 2.78
- LNFQIEHHLFPTMPRHNHHKVAPL — lower, 1.6
- LNFQIEHHLFPTMPRHNKHKVAPL — lower, 2.25
- LNFQIEHHLFPTMPRHNCHKVAPL — lower, 2.42
- LNFQIEHHLFPTMPRHNNHKVAPL — lower, 1.81
- LNFQIEHHLFPTMPRHNYHKVTPL — lower, 2.09
- LNFQIEHHLFPTMPRHNYHKVIPL — higher, 3.37
- LNFQIEHHLFPTMPRHNYHKVPPL — lower, 2.1
- LNFQIEHHLFPTMPRHNYHKVNPL — lower, 1.69
- LNFQIEHHLFPTMPRHNYHKVMPL — higher, 3.28
- LNFQIEHHLFPTMPRHNYHKVSPL — higher, 2.91
- LNFQIEHHLFPTMPRHNYHKVQPL — lower, 2.06
- LNFQIEHHLFPTMPRHNYHKVVPL — higher, 2.82
- LNFQIEHHLFPTMPRHNYHKVLPL — lower, 2.05
- LNFQIEHHLFPTMPRHNYHKVWPL — lower, 2.34
- LNFQIEHHLFPTMPRHNYHKVCPL — lower, 1.65
- LNFQIEKHLFPTMPRHNYHKVAPL — higher, 2.75
- LNFQIEDHLFPTMPRHNYHKVAPL — lower, 1.93
- LNFQIEIHLFPTMPRHNYHKVAPL — higher, 3.32
- LNFQIEAHLFPTMPRHNYHKVAPL — lower, 2.31
- LNFQIEEHLFPTMPRHNYHKVAPL — lower, 1.76
- LNFQIEWHLFPTMPRHNYHKVAPL — higher, 3.85
- LNFQIERHLFPTMPRHNYHKVAPL — lower, 1.65
- LNFQIEHHLFPSMPRHNYHKVAPL — higher, 2.65
- LNFQIEHHLFPVMPRHNYHKVAPL — lower, 2.29
- LNFQIEHHLFPQMPRHNYHKVAPL — lower, 1.99
- LNFQIEHHLFPPMPRHNYHKVAPL — higher, 3.45
- LNFQIEHHLFPKMPRHNYHKVAPL — lower, 1.92
- LNFQIEHHLFPNMPRHNYHKVAPL — lower, 1.77
- LNFQIEHHLFPEMPRHNYHKVAPL — lower, 2.42
- LNFQIEHHLFPAMPRHNYHKVAPL — lower, 2.56
- LNFQIEHHLFPTMPRHNYHKVAKL — lower, 1.54
- LNFQIEHHLFPTMPRHNYHKVAYL — lower, 1.79
- LNFQIEHHLFPTMPRHNYHKVAAL — higher, 2.81
- LNFQIEHHLFPTMPRHNYHKVAEL — lower, 2.21
- LNFQIEHHLFPTMPRHNYHKVASL — lower, 1.88
- LNFQIEHHLFPTMPRHNYHKVACL — lower, 1.88
- LNFQIEHHLFPTMPRHNYPKVAPL — higher, 3.38
- LNFQIEHHLFPTMPRHNYQKVAPL — lower, 2
- LNFQIEHHLFPTMPRHNYRKVAPL — lower, 1.88
- LNFQIEHHLFPTMPRHNYSKVAPL — lower, 2.35
- LNFQIEHHLFPTMPRHNYWKVAPL — higher, 3.52
- LNFQIEHHLFPTMPRHNYIKVAPL — higher, 3.24
- LNFQIEHHLFPTMPRHNYDKVAPL — higher, 3.43
- LNFQIEHHLFPTMPRHNYEKVAPL — lower, 2.25
- LNFQIEHHLFPTMPRHNYKKVAPL — lower, 2.3
- LNFQIEHHLFPTMPRHNYNKVAPL — lower, 2.27
- LNFQIEHHLFPTMMRHNYHKVAPL — lower, 2.44
- LNFQIEHHLFPTMCRHNYHKVAPL — higher, 3.64
- LNFQIEHHLFPTMVRHNYHKVAPL — lower, 2.38
- LNFQIEHHLFPTMIRHNYHKVAPL — lower, 2.08
- LNFQIEHHLFPTMQRHNYHKVAPL — lower, 2.54
- LNFQIEHHLFPTMTRHNYHKVAPL — lower, 1.9
- LNFQIEHHLFPTMRRHNYHKVAPL — lower, 1.76
- LNFQIEHHLFPTMLRHNYHKVAPL — lower, 1.18
- LNFQIEHHLFPTMHRHNYHKVAPL — lower, 1.9
- LNFQIEHHLFPTMPRHNYHKVAPM — lower, 1.81
- LNFQIEHHLFPTMPRHNYHKVAPD — lower, 2.03
- LNFQIEHHLFPTMPRHNYHKVAPV — lower, 1.5
- LNFQIEHHLFPTMPRHNYHKVAPH — lower, 2.27
- LNFQIEHHLFPTMPRHNYHKVAPI — higher, 3.69
- LNFQIEHHLFPTMPRHNYHKVAPG — lower, 2.35
- LNFQIEHHLFPTMPRHNYHKVAPP — lower, 2.3
- LNFQIEHHLFPTMPRHNYHKVAPS — lower, 1.15
- LNFQIEHHLFPTMPRHNYHKVAPT — lower, 1.56
- LNFQIEHHLFPTMPRHSYHKVAPL — lower, 2.02
- LNFQIEHHLFPTMPRHLYHKVAPL — higher, 3.08
- LNFQIEHHLFPTMPRHIYHKVAPL — lower, 1.5
- LNFQIEHHLFPTMPRHVYHKVAPL — lower, 1.43
- LNFQIEHHLFPTMPRHPYHKVAPL — higher, 2.71
- LNFQIEHHLFPTMPRFNYHKVAPL — lower, 2.12
- LNFQIEHHLFPTMPRVNYHKVAPL — lower, 2.36
- LNFQIEHHLFPTMPRMNYHKVAPL — higher, 4.22
- LNFQIEHHLFPTMPRTNYHKVAPL — lower, 1.77
- LNFQIEHHLFPTMPRRNYHKVAPL — lower, 2.13
- LNFQIEHHLFPTMPRLNYHKVAPL — lower, 1.96
- LNFQIEHHLFPTMPRHNYHPVAPL — higher, 2.71
- LNFQIEHHLFPTMPRHNYHYVAPL — higher, 3.23
- LNFQIEHHLFPTMPRHNYHAVAPL — lower, 1.9
- LNFQIEHHLFPTMPRHNYHEVAPL — lower, 1.94
- LNFQIEHHLFPTMPRHNYHRVAPL — higher, 2.76
- LNFQIEHHLFPTMPRHNYHLVAPL — higher, 3.03
- LNFQIEHHSFPTMPRHNYHKVAPL — higher, 2.71
- LNFQIEHHWFPTMPRHNYHKVAPL — higher, 3.23
- LNFQIEHHFFPTMPRHNYHKVAPL — higher, 3.13
- LNFQIEHHYFPTMPRHNYHKVAPL — lower, 2.1
- LNFQIEHHEFPTMPRHNYHKVAPL — lower, 1.23
- LNFQIEHHNFPTMPRHNYHKVAPL — lower, 1.57
- LNFQIEHHMFPTMPRHNYHKVAPL — lower, 1.95
- LNFQIEHHQFPTMPRHNYHKVAPL — lower, 1.34
- LNFQIEHHIFPTMPRHNYHKVAPL — lower, 2.01
- LEFQIEHHLFPTMPRHNYHKVAPL — lower, 2.42
- LLFQIEHHLFPTMPRHNYHKVAPL — higher, 3.82
- LHFQIEHHLFPTMPRHNYHKVAPL — lower, 2.37
- LPFQIEHHLFPTMPRHNYHKVAPL — lower, 1.65
- LNFQIEHHLFPTGPRHNYHKVAPL — lower, 2.13
- LNFQIEHHLFPTWPRHNYHKVAPL — higher, 2.66
- LNFQIEHHLFPTDPRHNYHKVAPL — lower, 1.82
- LNFQIEHHLFPTKPRHNYHKVAPL — lower, 1.75
- LNFQIEHHLFPTCPRHNYHKVAPL — lower, 1.75
- LNFQIEHHLFPTQPRHNYHKVAPL — lower, 1.15
- LNFQIEHHLFPTSPRHNYHKVAPL — higher, 2.59
- LNFQIEHHLFPTRPRHNYHKVAPL — lower, 1.4
- LNFQIEHHLFPTVPRHNYHKVAPL — higher, 2.6
- LNFQIEHHLFPTMPRHNYHKLAPL — lower, 2.24
- LNFQIEHHLFPTMPRHNYHKKAPL — lower, 1.83
- LNFQIEHHLFPTMPRHNYHKQAPL — lower, 1.46
- LNFQIEHHLFPTMPRHNYHKCAPL — lower, 2.38
- LNFQIEHHLFPTMPRHNYHKSAPL — lower, 1.98
- LNFQIEHHLFPTMPRHNYHKFAPL — higher, 2.85
- LNFQIEHHLFPTMPRHNYHKRAPL — lower, 1.7
- LNFQIEHHLFPTMPRHNYHKNAPL — lower, 1.58
- LNFQIEHHLFPTMPRHNYHKMAPL — lower, 2.5
- LNFQIEHHLFPTMPRHNYHKAAPL — lower, 1.32
- LNFQIEHHLWPTMPRHNYHKVAPL — lower, 2
- LNFQIEHHLCPTMPRHNYHKVAPL — higher, 2.71
- LNFQIEHHLTPTMPRHNYHKVAPL — lower, 1.39
- LNFQIEHHLAPTMPRHNYHKVAPL — lower, 2.17
- LNFQIEHHLPPTMPRHNYHKVAPL — lower, 1.24
- LNFQIEHHLYPTMPRHNYHKVAPL — lower, 2.17
- LNFQIEHHLDPTMPRHNYHKVAPL — lower, 1.74
- LNFQIEHHLFWTMPRHNYHKVAPL — higher, 3.17
- LNFQIEHHLFCTMPRHNYHKVAPL — lower, 2.3
- LNFQIEHHLFRTMPRHNYHKVAPL — lower, 1.81
- LNFQIEHHLFYTMPRHNYHKVAPL — higher, 2.96
- LNFQIEHHLFVTMPRHNYHKVAPL — lower, 2.17
- LNFQIEHHLFLTMPRHNYHKVAPL — lower, 2.53
- LNFSIEHHLFPTMPRHNYHKVAPL — lower, 1.3
- LNFLIEHHLFPTMPRHNYHKVAPL — higher, 3.1
- LNFVIEHHLFPTMPRHNYHKVAPL — higher, 3.42
- LNFAIEHHLFPTMPRHNYHKVAPL — lower, 1.44
- LNFTIEHHLFPTMPRHNYHKVAPL — higher, 2.74
- LNFHIEHHLFPTMPRHNYHKVAPL — higher, 2.67
- LNFNIEHHLFPTMPRHNYHKVAPL — lower, 2.22
- LNFFIEHHLFPTMPRHNYHKVAPL — lower, 2.52
- LNFDIEHHLFPTMPRHNYHKVAPL — lower, 1.66
- LNFQTEHHLFPTMPRHNYHKVAPL — lower, 1.65
- LNFQMEHHLFPTMPRHNYHKVAPL — lower, 1.63
- LNFQDEHHLFPTMPRHNYHKVAPL — lower, 2.4
- LNFQFEHHLFPTMPRHNYHKVAPL — higher, 2.87
- LNFQWEHHLFPTMPRHNYHKVAPL — lower, 1.43
- LNFQIEHALFPTMPRHNYHKVAPL — lower, 1.87
- LNFQIEHWLFPTMPRHNYHKVAPL — the same, 2.58
- LNFQIEHPLFPTMPRHNYHKVAPL — lower, 2.11
- LNFQIEHHLFPTMPWHNYHKVAPL — higher, 2.99
- LNFQIEHHLFPTMPKHNYHKVAPL — lower, 2.35
- LNFQIEHHLFPTMPVHNYHKVAPL — lower, 2.01
- LNFQIEHHLFPTMPQHNYHKVAPL — lower, 1.33
- LNFQIEHHLFPTMPEHNYHKVAPL — lower, 1.81
- LNFQIEHHLFPTMPHHNYHKVAPL — lower, 1.84
- LNFQIEHHLFPTMPSHNYHKVAPL — higher, 2.95
- LNFQIEHHLFPTMPIHNYHKVAPL — higher, 2.88
- LNRQIEHHLFPTMPRHNYHKVAPL — lower, 1.96
- LNNQIEHHLFPTMPRHNYHKVAPL — lower, 2.52
- LNTQIEHHLFPTMPRHNYHKVAPL — lower, 2.4
- LNEQIEHHLFPTMPRHNYHKVAPL — higher, 2.65
- LNYQIEHHLFPTMPRHNYHKVAPL — lower, 1.37
- LNWQIEHHLFPTMPRHNYHKVAPL — lower, 1.92
- LNPQIEHHLFPTMPRHNYHKVAPL — lower, 1.95
- LNCQIEHHLFPTMPRHNYHKVAPL — lower, 2.22
- LNGQIEHHLFPTMPRHNYHKVAPL — lower, 2.42
- LNSQIEHHLFPTMPRHNYHKVAPL — lower, 2.15
- LNQQIEHHLFPTMPRHNYHKVAPL — lower, 2.17
